Measured values as given in patent publication US20040219159, “Methods and compositions for therapeutic intervention in infectious disease” (published 2004).

Molecular target: T1, HspR (Rv0353) (Mycobacterium tuberculosis, UniProt O06302 O06302:1-126)
T1 sequence: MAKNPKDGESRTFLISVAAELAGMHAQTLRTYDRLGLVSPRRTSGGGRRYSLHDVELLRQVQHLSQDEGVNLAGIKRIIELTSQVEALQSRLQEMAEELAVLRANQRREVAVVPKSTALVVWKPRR
Experiment: EMSA
Conditions: tags: His-tag (pQE30, expressed in E. coli SG13009, renatured from urea); label: 32P; annealed 40-mers with short 5' overhangs

B1: HAIR2 oligonucleotide DNAKIR-F/DNAKIR-R (dsDNA)
DNA 1: GCTCAGTAAGTTGAGTGCATCAGGCTCAGCTCTGAATTGA
DNA 2: GTCAATTCAGAGCTGAGCCTGATGCACTCAACTTACTGAG
- binding result: binds
